# Measurements from paper PMC10397247.
# T1: 4H3330-AA
# T1 chain: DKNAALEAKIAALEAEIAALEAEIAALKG
# T2: APC3645-AA
# T2 chain: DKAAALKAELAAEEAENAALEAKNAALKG
# T3: APC9096-AA
# T3 chain: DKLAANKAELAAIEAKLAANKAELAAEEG
# T4: APC6108-AA
# T4 chain: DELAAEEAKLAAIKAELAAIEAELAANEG
# T5: 4H716-AA
# T5 chain: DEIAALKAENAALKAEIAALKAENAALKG
# T6: APC4264-AA
# T6 chain: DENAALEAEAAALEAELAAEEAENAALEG
# T7: APC1015-AA
# T7 chain: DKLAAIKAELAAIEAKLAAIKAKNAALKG
# T8: 4H807-AA
# T8 chain: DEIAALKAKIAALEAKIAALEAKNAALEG
# T9: APC4436-AA
# T9 chain: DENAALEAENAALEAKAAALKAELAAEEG
# T10: APC2237-AA
# T10 chain: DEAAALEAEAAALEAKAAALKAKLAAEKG
# T11: APC232-AA
# T11 chain: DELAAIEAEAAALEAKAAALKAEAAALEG
# T12: APC8910-AA
# T12 chain: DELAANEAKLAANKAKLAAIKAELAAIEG
# T13: APC9319-AA
# T13 chain: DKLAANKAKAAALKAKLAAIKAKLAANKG
# T14: APC1434-AA
# T14 chain: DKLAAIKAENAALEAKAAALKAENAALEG
# T15: APC4011-AA
# T15 chain: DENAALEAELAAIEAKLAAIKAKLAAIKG
# T16: 4H733-AA
# T16 chain: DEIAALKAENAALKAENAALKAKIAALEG
# T17: APC5383-AA
# T17 chain: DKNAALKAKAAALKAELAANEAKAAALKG
# T18: APC2405-AA
# T18 chain: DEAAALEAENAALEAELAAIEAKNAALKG
# T19: APC8191-AA
# T19 chain: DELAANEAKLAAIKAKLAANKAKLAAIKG
# T20: APC7099-AA
# T20 chain: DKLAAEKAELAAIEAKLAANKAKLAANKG
# T21: 4H754-bA
# T21 chain: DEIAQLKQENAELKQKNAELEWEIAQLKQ
# T22: 4H3427-bA
# T22 chain: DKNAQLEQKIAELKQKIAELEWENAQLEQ
# T23: 4H338-bA
# T23 chain: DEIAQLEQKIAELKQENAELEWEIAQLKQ
# T24: 4H967-bA
# T24 chain: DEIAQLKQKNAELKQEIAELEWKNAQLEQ
# T25: 4H918-bA
# T25 chain: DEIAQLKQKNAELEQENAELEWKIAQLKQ
# T26: 4H2667-bA
# T26 chain: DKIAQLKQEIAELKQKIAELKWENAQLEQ
# T27: 4H4001-bA
# T27 chain: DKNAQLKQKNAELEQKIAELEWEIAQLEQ
# T28: 4H953-bA
# T28 chain: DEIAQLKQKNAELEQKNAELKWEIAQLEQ
# T29: 4H3185-bA
# T29 chain: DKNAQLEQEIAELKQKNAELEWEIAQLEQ
# T30: 4H908-bA
# T30 chain: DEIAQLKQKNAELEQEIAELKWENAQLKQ
# T31: 4H454-bA
# T31 chain: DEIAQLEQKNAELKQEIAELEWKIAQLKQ
# T32: 4H331-bA
# T32 chain: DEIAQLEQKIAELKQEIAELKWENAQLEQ
# T33: 4H72-bA
# T33 chain: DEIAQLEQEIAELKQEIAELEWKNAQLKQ
# T34: 4H3112-bA
# T34 chain: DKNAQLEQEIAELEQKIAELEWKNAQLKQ
# T35: 4H3354-bA
# T35 chain: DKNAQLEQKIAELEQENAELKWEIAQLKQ
# T36: 4H2729-bA
# T36 chain: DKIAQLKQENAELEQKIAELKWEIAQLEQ
# T37: 4H687-bA
# T37 chain: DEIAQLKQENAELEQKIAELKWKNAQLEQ
# T38: 4H3855-bA
# T38 chain: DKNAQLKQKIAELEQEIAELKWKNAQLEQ
# T39: 4H568-bA
# T39 chain: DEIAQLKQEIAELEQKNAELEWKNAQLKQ
# T40: 4H717-bA
# T40 chain: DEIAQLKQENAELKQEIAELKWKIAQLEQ
# T41: 4H3189-bA
# T41 chain: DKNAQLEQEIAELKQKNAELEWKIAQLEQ
# T42: 4H883-bA
# T42 chain: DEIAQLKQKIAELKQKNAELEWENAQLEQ
# T43: 4H2618-bA
# T43 chain: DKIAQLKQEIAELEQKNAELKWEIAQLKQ
# T44: 4H797-bA
# T44 chain: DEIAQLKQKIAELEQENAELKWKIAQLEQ
# T45: 4H3782-bA
# T45 chain: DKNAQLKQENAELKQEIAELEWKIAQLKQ
# T46: 4H607-bA
# T46 chain: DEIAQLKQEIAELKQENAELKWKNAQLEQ
# T47: P9bHq
# T47 chain: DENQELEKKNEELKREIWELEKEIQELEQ
# T48: P7bHq
# T48 chain: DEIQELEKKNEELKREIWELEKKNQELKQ
# T49: P6bHq
# T49 chain: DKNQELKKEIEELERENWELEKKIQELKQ
# T50: P5bHq
# T50 chain: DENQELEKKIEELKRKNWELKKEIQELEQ
# T51: P8bHq
# T51 chain: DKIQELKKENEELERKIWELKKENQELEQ
# T52: P4bHq
# T52 chain: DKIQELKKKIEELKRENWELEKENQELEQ
# Tests used:
# 4H3330-AA = target: T1, 4H3330-AA; test: two-hybrid library CCmax;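 also: natural log of median RNA to DNA barcode read ratio; higher means stronger binding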
# APC3645-AA = target: T2, APC3645-AA; test: two-hybrid library CCmax; conditions: mean of both orientations;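 also: natural log of median RNA to DNA barcode read ratio; higher means stronger binding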
# APC9096-AA = target: T3, APC9096-AA; test: two-hybrid library CCmax; conditions: mean of both orientations;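 also: natural log of median RNA to DNA barcode read ratio; higher means stronger binding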
# APC6108-AA = target: T4, APC6108-AA; test: two-hybrid library CCmax; conditions: mean of both orientations;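 also: natural log of median RNA to DNA barcode read ratio; higher means stronger binding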
# 4H716-AA = target: T5, 4H716-AA; test: two-hybrid library CCmax; conditions: mean of both orientations;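 also: natural log of median RNA to DNA barcode read ratio; higher means stronger binding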
# APC4264-AA = target: T6, APC4264-AA; test: two-hybrid library CCmax; conditions: mean of both orientations;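 also: natural log of median RNA to DNA barcode read ratio; higher means stronger binding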
# APC1015-AA = target: T7, APC1015-AA; test: two-hybrid library CCmax; conditions: mean of both orientations
# 4H807-AA = target: T8, 4H807-AA; test: two-hybrid library CCmax; conditions: mean of both orientations
# APC4436-AA = target: T9, APC4436-AA; test: two-hybrid library CCmax; conditions: mean of both orientations
# APC2237-AA = target: T10, APC2237-AA; test: two-hybrid library CCmax; conditions: mean of both orientations
# APC232-AA = target: T11, APC232-AA; test: two-hybrid library CCmax; conditions: mean of both orientations
# APC8910-AA = target: T12, APC8910-AA; test: two-hybrid library CCmax
# APC9319-AA = target: T13, APC9319-AA; test: two-hybrid library CCmax; conditions: mean of both orientations
# APC1434-AA = target: T14, APC1434-AA; test: two-hybrid library CCmax; conditions: mean of both orientations
# APC4011-AA = target: T15, APC4011-AA; test: two-hybrid library CCmax; conditions: mean of both orientations
# 4H733-AA = target: T16, 4H733-AA; test: two-hybrid library CCmax; conditions: mean of both orientations
# APC5383-AA = target: T17, APC5383-AA; test: two-hybrid library CCmax; conditions: mean of both orientations
# APC2405-AA = target: T18, APC2405-AA; test: two-hybrid library CCmax; conditions: mean of both orientations
# APC8191-AA = target: T19, APC8191-AA; test: two-hybrid library CCmax; conditions: mean of both orientations
# APC7099-AA = target: T20, APC7099-AA; test: two-hybrid library CCmax; conditions: mean of both orientations
# 4H754-bA = target: T21, 4H754-bA; test: two-hybrid library CCNG1
# 4H3427-bA = target: T22, 4H3427-bA; test: two-hybrid library CCNG1
# 4H338-bA = target: T23, 4H338-bA; test: two-hybrid library CCNG1
# 4H967-bA = target: T24, 4H967-bA; test: two-hybrid library CCNG1
# 4H918-bA = target: T25, 4H918-bA; test: two-hybrid library CCNG1
# 4H2667-bA = target: T26, 4H2667-bA; test: two-hybrid library CCNG1
# 4H4001-bA = target: T27, 4H4001-bA; test: two-hybrid library CCNG1
# 4H953-bA = target: T28, 4H953-bA; test: two-hybrid library CCNG1
# 4H3185-bA = target: T29, 4H3185-bA; test: two-hybrid library CCNG1
# 4H908-bA = target: T30, 4H908-bA; test: two-hybrid library CCNG1
# 4H454-bA = target: T31, 4H454-bA; test: two-hybrid library CCNG1
# 4H331-bA = target: T32, 4H331-bA; test: two-hybrid library CCNG1
# 4H72-bA = target: T33, 4H72-bA; test: two-hybrid library CCNG1
# 4H3112-bA = target: T34, 4H3112-bA; test: two-hybrid library CCNG1
# 4H3354-bA = target: T35, 4H3354-bA; test: two-hybrid library CCNG1
# 4H2729-bA = target: T36, 4H2729-bA; test: two-hybrid library CCNG1
# 4H687-bA = target: T37, 4H687-bA; test: two-hybrid library CCNG1
# 4H3855-bA = target: T38, 4H3855-bA; test: two-hybrid library CCNG1
# 4H568-bA = target: T39, 4H568-bA; test: two-hybrid library CCNG1
# 4H717-bA = target: T40, 4H717-bA; test: two-hybrid library CCNG1
# 4H3189-bA = target: T41, 4H3189-bA; test: two-hybrid library CCNG1
# 4H883-bA = target: T42, 4H883-bA; test: two-hybrid library CCNG1
# 4H2618-bA = target: T43, 4H2618-bA; test: two-hybrid library CCNG1
# 4H797-bA = target: T44, 4H797-bA; test: two-hybrid library CCNG1
# 4H3782-bA = target: T45, 4H3782-bA; test: two-hybrid library CCNG1
# 4H607-bA = target: T46, 4H607-bA; test: two-hybrid library CCNG1
# P9bHq = target: T47, P9bHq; test: two-hybrid library CCNG1
# P7bHq = target: T48, P7bHq; test: two-hybrid library CCNG1
# P6bHq = target: T49, P6bHq; test: two-hybrid library CCNG1
# P5bHq = target: T50, P5bHq; test: two-hybrid library CCNG1
# P8bHq = target: T51, P8bHq; test: two-hybrid library CCNG1
# P4bHq = target: T52, P4bHq; test: two-hybrid library CCNG1
binder,measurement,setting,value
DKNAALEAKIAALEAEIAALEAEIAALKG [4H3330-AA],interaction score,4H3330-AA,1.32
same,interaction score,APC3645-AA,-1.25
same,interaction score,APC9096-AA,-1.65
same,interaction score,APC6108-AA,0.0413
same,interaction score,4H716-AA,-1.14
same,interaction score,APC4264-AA,-1.37
same,interaction score,APC1015-AA,-0.658
same,interaction score,4H807-AA,-1.35
same,interaction score,APC4436-AA,-1.42
same,interaction score,APC2237-AA,-0.433
same,interaction score,APC232-AA,-1.1
same,interaction score,APC8910-AA,-0.0896
same,interaction score,APC9319-AA,0.302
same,interaction score,APC1434-AA,-1.62
same,interaction score,APC4011-AA,2.04
same,interaction score,4H733-AA,-1.48
same,interaction score,APC5383-AA,-1.16
same,interaction score,APC2405-AA,-1.07
same,interaction score,APC8191-AA,1.43
same,interaction score,APC7099-AA,-1.98
DKIAQLKQEIAELEQKNAELKWEIAQLKQ [4H2618-bA],interaction score,4H754-bA,-0.396
same,interaction score,4H3427-bA,0.72
same,interaction score,4H338-bA,1.02
same,interaction score,4H967-bA,-0.631
same,interaction score,4H918-bA,1.61
same,interaction score,4H2667-bA,0.0194
same,interaction score,4H4001-bA,0.142
same,interaction score,4H953-bA,-1.3
same,interaction score,4H3185-bA,0.858
same,interaction score,4H908-bA,-0.916
same,interaction score,4H454-bA,0.854
same,interaction score,4H331-bA,0.866
same,interaction score,4H72-bA,0.102
same,interaction score,4H3112-bA,-0.804
same,interaction score,4H3354-bA,1.21
same,interaction score,4H2729-bA,1.35
same,interaction score,4H687-bA,0.769
same,interaction score,4H3855-bA,-0.835
same,interaction score,4H568-bA,-0.965
same,interaction score,4H717-bA,-1.08
same,interaction score,4H3189-bA,-2.6
same,interaction score,4H883-bA,0.137
same,interaction score,4H2618-bA,0.484
same,interaction score,4H797-bA,0.0328
same,interaction score,4H3782-bA,-0.735
same,interaction score,4H607-bA,-1.07
DKIQELKKKIEELKRENWELEKENQELEQ [P4bHq],interaction score,P9bHq,-0.875
same,interaction score,P7bHq,-1.11
same,interaction score,P6bHq,-0.00957
same,interaction score,P5bHq,-1.27
same,interaction score,P8bHq,-0.273
same,interaction score,P4bHq,-0.613
